Changes are numbered by the printed parent chain. Names and notes keep the numbering of the source.
B1: target 2 MT 5'PFS GAU 3'PFS UAA (mixed)
RNA 1: CACCCGUGCAAAAUUGCAGGGGUCUAAAACCUUCUCCAAAUUGUUUCAUCCU
RNA 2: GGGAAUGGAUCCACAUCUACGAAUUCGAUAGGAUGAAACAAUUUGGAGAAGUAAAGAUCGGAAGAGCACACGU
B2: target 2 MT 5'PFS UAA 3'PFS AAC (mixed)
RNA 1: B1 RNA 1
RNA 2: B1 RNA 2 with G27U, U29A, U52A, A54C
B3: target 2 MT 5'PFS AUA 3'PFS AAU (mixed)
RNA 1: B1 RNA 1
RNA 2: B1 RNA 2 with G27A, A28U, U29A, U52A, A54U
B4: target 2 MT 5'PFS CUG 3'PFS AGA (mixed)
RNA 1: B1 RNA 1
RNA 2: B1 RNA 2 with G27C, A28U, U29G, U52A, A53G
B5: target 2 MT 5'PFS AUA 3'PFS CCA (mixed)
RNA 1: B1 RNA 1
RNA 2: B1 RNA 2 with G27A, A28U, U29A, U52C, A53C
B6: target 2 MT 5'PFS GUC 3'PFS CAC (mixed)
RNA 1: B1 RNA 1
RNA 2: B1 RNA 2 with A28U, U29C, U52C, A54C
B7: target 2 MT 5'PFS UAA 3'PFS AAU (mixed)
RNA 1: B1 RNA 1
RNA 2: B1 RNA 2 with G27U, U29A, U52A, A54U
B8: target 2 MT 5'PFS GCA 3'PFS CCA (mixed)
RNA 1: B1 RNA 1
RNA 2: B1 RNA 2 with A28C, U29A, U52C, A53C
B9: target 2 MT 5'PFS CUG 3'PFS AGC (mixed)
RNA 1: B1 RNA 1
RNA 2: B1 RNA 2 with G27C, A28U, U29G, U52A, A53G, A54C
B10: target 2 MT 5'PFS CGC 3'PFS AGC (mixed)
RNA 1: B1 RNA 1
RNA 2: B1 RNA 2 with G27C, A28G, U29C, U52A, A53G, A54C
B11: target 2 MT 5'PFS CGA 3'PFS ACA (mixed)
RNA 1: B1 RNA 1
RNA 2: B1 RNA 2 with G27C, A28G, U29A, U52A, A53C
B12: target 2 MT 5'PFS UUU 3'PFS CUA (mixed)
RNA 1: B1 RNA 1
RNA 2: B1 RNA 2 with G27U, A28U, U52C, A53U
B13: target 2 MT 5'PFS CUG 3'PFS AGU (mixed)
RNA 1: B1 RNA 1
RNA 2: B1 RNA 2 with G27C, A28U, U29G, U52A, A53G, A54U
B14: target 2 MT 5'PFS CGC 3'PFS AGG (mixed)
RNA 1: B1 RNA 1
RNA 2: B1 RNA 2 with G27C, A28G, U29C, U52A, A53G, A54G
B15: target 2 MT 5'PFS GCC 3'PFS AAC (mixed)
RNA 1: B1 RNA 1
RNA 2: B1 RNA 2 with A28C, U29C, U52A, A54C
B16: target 2 MT 5'PFS UAA 3'PFS AAA (mixed)
RNA 1: B1 RNA 1
RNA 2: B1 RNA 2 with G27U, U29A, U52A
B17: target 2 MT 5'PFS CGA 3'PFS ACU (mixed)
RNA 1: B1 RNA 1
RNA 2: B1 RNA 2 with G27C, A28G, U29A, U52A, A53C, A54U
B18: target 2 MT 5'PFS GUC 3'PFS CAA (mixed)
RNA 1: B1 RNA 1
RNA 2: B1 RNA 2 with A28U, U29C, U52C
B19: target 2 MT 5'PFS UAA 3'PFS AAG (mixed)
RNA 1: B1 RNA 1
RNA 2: B1 RNA 2 with G27U, U29A, U52A, A54G
B20: target 2 MT 5'PFS UUG 3'PFS CUU (mixed)
RNA 1: B1 RNA 1
RNA 2: B1 RNA 2 with G27U, A28U, U29G, U52C, A53U, A54U
B21: target 2 MT 5'PFS UUU 3'PFS CUG (mixed)
RNA 1: B1 RNA 1
RNA 2: B1 RNA 2 with G27U, A28U, U52C, A53U, A54G
B22: target 2 MT 5'PFS GAG 3'PFS CUU (mixed)
RNA 1: B1 RNA 1
RNA 2: B1 RNA 2 with U29G, U52C, A53U, A54U
B23: target 2 MT 5'PFS GAC 3'PFS UCC (mixed)
RNA 1: B1 RNA 1
RNA 2: B1 RNA 2 with U29C, A53C, A54C
B24: target 2 MT 5'PFS GAU 3'PFS UAU (mixed)
RNA 1: B1 RNA 1
RNA 2: B1 RNA 2 with A54U
B25: target 2 MT 5'PFS GCC 3'PFS AAG (mixed)
RNA 1: B1 RNA 1
RNA 2: B1 RNA 2 with A28C, U29C, U52A, A54G
B26: target 2 MT 5'PFS CGA 3'PFS ACC (mixed)
RNA 1: B1 RNA 1
RNA 2: B1 RNA 2 with G27C, A28G, U29A, U52A, A53C, A54C
B27: target 2 MT 5'PFS GCA 3'PFS CCG (mixed)
RNA 1: B1 RNA 1
RNA 2: B1 RNA 2 with A28C, U29A, U52C, A53C, A54G
B28: target 2 MT 5'PFS GCC 3'PFS AAA (mixed)
RNA 1: B1 RNA 1
RNA 2: B1 RNA 2 with A28C, U29C, U52A
B29: target 2 MT 5'PFS GUC 3'PFS CAG (mixed)
RNA 1: B1 RNA 1
RNA 2: B1 RNA 2 with A28U, U29C, U52C, A54G
B30: target 2 MT 5'PFS CGA 3'PFS ACG (mixed)
RNA 1: B1 RNA 1
RNA 2: B1 RNA 2 with G27C, A28G, U29A, U52A, A53C, A54G
B31: target 2 MT 5'PFS UUU 3'PFS CUU (mixed)
RNA 1: B1 RNA 1
RNA 2: B1 RNA 2 with G27U, A28U, U52C, A53U, A54U
B32: target 2 MT 5'PFS UUU 3'PFS CUC (mixed)
RNA 1: B1 RNA 1
RNA 2: B1 RNA 2 with G27U, A28U, U52C, A53U, A54C
B33: target 2 MT 5'PFS AUA 3'PFS CCG (mixed)
RNA 1: B1 RNA 1
RNA 2: B1 RNA 2 with G27A, A28U, U29A, U52C, A53C, A54G
B34: target 1 insU 3' of 9,insG 3' of 6 (mixed)
RNA 1: CACCCGUGCAAAAAUGCAGGGGUCUAAAACUGAGCGGAUAACCUCUCUAUGG
RNA 2: GGGAAUGGAUCCACAUCUACGAAUUCGUACCAUAGAGAGGUUAUUCCGGCUCACCGAGAUCGGAAGAGCACACGU
B35: target 1 U3A,G13A (mixed)
RNA 1: B34 RNA 1
RNA 2: GGGAAUGGAUCCACAUCUACGAAUUCGUACCAUAGAGAAGUUAUCCGCACACCGAGAUCGGAAGAGCACACGU
B36: target 1 insA 3' of 10,insG 3' of 6 (mixed)
RNA 1: B34 RNA 1
RNA 2: B34 RNA 2 with U44A
B37: target 1 A14G,C22U (mixed)
RNA 1: B34 RNA 1
RNA 2: B35 RNA 2 with C30U, A38G, A39G, A49U

Molecular target: T1, EsCas13d, nuclease-dead (Eubacterium siraeum, UniProt B0MS50, R295A;H300A;R849A;H854A)
T1 sequence: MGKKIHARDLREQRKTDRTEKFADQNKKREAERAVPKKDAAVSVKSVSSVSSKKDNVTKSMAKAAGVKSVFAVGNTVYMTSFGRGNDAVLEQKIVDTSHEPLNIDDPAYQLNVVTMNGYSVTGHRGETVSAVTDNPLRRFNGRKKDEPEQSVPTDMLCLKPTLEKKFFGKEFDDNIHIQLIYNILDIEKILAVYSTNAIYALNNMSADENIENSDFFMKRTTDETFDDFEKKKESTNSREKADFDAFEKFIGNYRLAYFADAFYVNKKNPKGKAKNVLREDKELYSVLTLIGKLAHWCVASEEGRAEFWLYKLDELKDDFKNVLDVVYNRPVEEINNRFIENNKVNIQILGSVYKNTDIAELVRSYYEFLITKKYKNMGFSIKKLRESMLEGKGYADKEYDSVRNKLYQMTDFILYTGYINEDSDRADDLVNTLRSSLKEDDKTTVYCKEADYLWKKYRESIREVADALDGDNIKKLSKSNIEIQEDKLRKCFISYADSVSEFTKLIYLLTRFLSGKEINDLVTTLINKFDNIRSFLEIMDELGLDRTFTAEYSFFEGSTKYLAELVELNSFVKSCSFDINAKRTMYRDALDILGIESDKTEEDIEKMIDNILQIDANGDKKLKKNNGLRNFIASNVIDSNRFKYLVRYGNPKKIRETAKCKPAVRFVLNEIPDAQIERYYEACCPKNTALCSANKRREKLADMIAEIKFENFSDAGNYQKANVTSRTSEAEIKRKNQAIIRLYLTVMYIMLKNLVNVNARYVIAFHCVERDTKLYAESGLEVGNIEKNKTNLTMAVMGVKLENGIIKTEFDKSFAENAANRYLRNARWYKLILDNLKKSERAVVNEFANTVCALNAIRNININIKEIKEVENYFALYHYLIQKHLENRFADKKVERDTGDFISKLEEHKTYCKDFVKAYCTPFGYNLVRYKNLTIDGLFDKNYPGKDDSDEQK
Assay: crRNA (strand 1, pre-loaded); Mg2+; 40 mM Tris-HCl pH 7.5, 150 mM NaCl, 6 mM MgCl2, 1 mM DTT, 0.1% Tween-20, 0.2 mg/ml BSA; 25 C; 10 min per concentration, then washed
Conditions: tags: His6-TwinStrep-SUMO cleaved; N-terminal SNAP kept (SNAP-Surface 488); label: 3' end held by stalled T7 RNA polymerase

Binder | Kd
B1 | 12 ± 4 nM
B2 | 6.6 ± 1 nM
B3 | 8.6 ± 1.4 nM
B4 | 2.16 ± 0.2 nM
B5 | 15.9 ± 2.5 nM
B6 | 13.4 ± 2.5 nM
B7 | 4.7 ± 0.6 nM
B8 | ~27 nM
B9 | 2.52 ± 0.2 nM
B10 | 6.1 ± 1.5 nM
B11 | 10.8 ± 2.6 nM
B12 | 16 ± 3.2 nM
B13 | 3.7 ± 0.6 nM
B14 | 3.4 ± 0.5 nM
B15 | 17 ± 5 nM
B16 | 2.9 ± 0.8 nM
B17 | 17 ± 7 nM
B18 | 9.8 ± 1.7 nM
B19 | 4.5 ± 0.6 nM

Binder | Kd
B20 | 15.9 ± 2.1 nM
B21 | 7.7 ± 1 nM
B22 | 8.9 ± 0.7 nM
B23 | 50 ± 15 nM
B24 | 16 ± 4 nM
B25 | 22 ± 5 nM
B26 | ~38 nM
B27 | 10.3 ± 1.4 nM
B28 | 11.9 ± 3.4 nM
B29 | 17.9 ± 2.4 nM
B30 | 6.9 ± 1 nM
B31 | 8.9 ± 0.8 nM
B32 | 8.4 ± 0.9 nM
B33 | 8.5 ± 0.8 nM
B34 | 12.1 ± 1.4 nM
B35 | 7.7 ± 0.5 nM
B36 | 9.9 ± 0.4 nM
B37 | ~49 nM

From paper PMC10786891, “Massively parallel profiling of RNA-targeting CRISPR-Cas13d”
